Experimental data: PMC9168451

How the values were obtained:
[1] = target: AbMtlD H434C_Y469C double-cysteine variant (Acinetobacter baumannii)
[2] = target: AbMtlD Y427C_A466C double-cysteine variant (Acinetobacter baumannii)
[3] = target: Acinetobacter baumannii bifunctional mannitol-1-phosphate dehydrogenase/phosphatase (AbMtlD), wild type (Acinetobacter baumannii); assay: SEC-MALS

Substance: AbMtlD H434C_Y469C double-cysteine variant (from UniProt A0ABX6CFK3 1-715) (enzyme)
- F6P reduction activity, kcat/Km for F6P (wild type: 2.388) [1]: 149000 M⁻¹ s⁻¹

Substance: AbMtlD Y427C_A466C double-cysteine variant (from UniProt A0ABX6CFK3 1-715) (enzyme)
- F6P reduction activity, kcat/Km for F6P (wild type: 2.388) [2]: 139000 M⁻¹ s⁻¹

Substance: Acinetobacter baumannii bifunctional mannitol-1-phosphate dehydrogenase/phosphatase (AbMtlD), wild type (from UniProt A0ABX6CFK3 1-715) (enzyme)
- stoichiometry N [3]: 2
